Results as given in article PMC8591511, “Flexible open conformation of the AP-3 complex explains its role in cargo recruitment at the Golgi” (The Journal of Biological Chemistry, 2021).
Each block holds one molecule with its values, some of them ahead of it.

T1: Apl5 (δ-subunit of yeast AP-3) with C-terminal 3xFLAG-tag (S. cerevisiae, UniProt Q08951 1-932)
T1 construct: Apl5, δ-subunit of the yeast AP-3 complex; ear domain aa 639–932; also called δ-adaptin; not shown: 3xFLAG, C-terminal, kept
T1 sequence (looked up): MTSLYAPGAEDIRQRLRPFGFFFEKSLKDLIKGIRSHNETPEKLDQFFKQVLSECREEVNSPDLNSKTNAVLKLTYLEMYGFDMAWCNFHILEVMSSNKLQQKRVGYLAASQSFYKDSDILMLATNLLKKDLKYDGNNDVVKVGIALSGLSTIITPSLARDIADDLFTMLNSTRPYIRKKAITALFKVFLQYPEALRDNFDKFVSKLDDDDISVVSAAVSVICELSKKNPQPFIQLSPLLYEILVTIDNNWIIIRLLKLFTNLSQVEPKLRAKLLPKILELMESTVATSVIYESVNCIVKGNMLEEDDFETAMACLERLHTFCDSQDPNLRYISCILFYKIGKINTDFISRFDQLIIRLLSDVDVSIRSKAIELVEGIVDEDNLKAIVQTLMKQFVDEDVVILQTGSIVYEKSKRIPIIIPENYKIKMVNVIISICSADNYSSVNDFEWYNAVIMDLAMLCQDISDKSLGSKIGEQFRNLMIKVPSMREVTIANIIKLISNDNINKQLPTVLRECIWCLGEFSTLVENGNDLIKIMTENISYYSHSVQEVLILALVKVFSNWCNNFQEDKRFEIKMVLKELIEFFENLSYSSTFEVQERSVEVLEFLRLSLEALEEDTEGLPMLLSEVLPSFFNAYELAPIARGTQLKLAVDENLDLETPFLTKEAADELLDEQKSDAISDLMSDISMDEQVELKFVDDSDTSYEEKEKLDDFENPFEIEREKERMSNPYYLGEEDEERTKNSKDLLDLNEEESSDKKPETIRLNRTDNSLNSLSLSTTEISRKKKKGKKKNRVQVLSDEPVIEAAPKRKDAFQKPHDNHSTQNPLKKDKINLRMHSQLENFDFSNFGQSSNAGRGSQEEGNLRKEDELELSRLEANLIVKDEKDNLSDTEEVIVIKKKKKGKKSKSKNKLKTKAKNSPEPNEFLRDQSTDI

B1: Nyv1 (yeast SNARE, AP-3 cargo with Yxxφ motif) (natural protein, UniProt Q12255 1-253, looked up)
chain: MKRFNVSYVEVIKNGETISSCFQPFQKNENYGTITSANEQITPVIFHNLIMDMVLPKVVPIKGNKVTKMSMNLIDGFDCFYSTDDHDPKTVYVCFTLVDMPKILPIRILSGLQEYESNATNELLSSHVGQILDSFHEELVEYRNQTLNSSGNGQSSNGNGQNTISDIGDATEDQIKDVIQIMNDNIDKFLERQERVSLLVDKTSQLNSSSNKFRRKAVNIKEIMWWQKVKNITLLTFTIILFVSAAFMFFYLW
notes: Nyv1, yeast SNARE; source: reconstituted into proteoliposomes
B2: Apm3 (μ3-subunit of yeast AP-3) (natural protein, S. cerevisiae, UniProt P38153 1-483, looked up)
chain: MYLSFYITDTKNKLIFQYLLGATAPSFKHLWTRVQSTCPQLLEDSSSDDYLDHSMVGRDLEVYKYFSVINKLNYWCLASTSKSKGPLDCFTFLETIDRILLEYFDKDKLSIKKIVNNYDRISLIFNCCVEAGEPNVSDMLYVNKIKEAVPERSDLSKFISSTAHNLQQAVQLPQQRQQQLQQNQISRGSNSLIENEEIVPWRTSRASKHENNELYVDLLETFHVVFEKKKSHLRLLTGSIHGIVDVRSYLNDNPLVAVKLNTMGNDIGIPSLHDCVEINDGVFSPSNITFIPPDGKFRLLEYSVDLSSQVKQSGVRMNSIGLMSLHFQNGLGKDSDEFELSLNIENFKKVSQVDDLKIDLQFNVENADPNEIAYKIKILRNTHGRFENSIIMGQGQWIFDKSTATGTVPVLRGCIEYENTGPNFTKKVDLQTVSLEYSYIGQSASGIYVEAIDIVSGLTIGKNTKLYKGAKYKTQTGNFQVRL
notes: Apm3, μ3-subunit of the yeast AP-3 complex; N-terminal domain aa 1–138, linker aa 139–211
B3: Apl6 (β3-subunit of yeast AP-3) (natural protein, S. cerevisiae, UniProt P46682 1-809, looked up)
chain: MVDSIHRIASALDTAKVITREAAAVATSKLGESSYTYYSQNINPQQLVTLLNSRNSREVRDAMKRIISIMASDDDSIDVQLYFADVVKNITTNDTKVKRLIHLYLLRFAENDPNLTLLSINSLQKSLSDSNSELRCFALSALSDMKMSSLAPIILHTVKKLVTDPSAMVRGEVALAIIKLYRAGKNDYHEELLDILKELMADTDPKVISCAVLAYKECYADHLELLHGHFRRYCRIIKQLDSWSQSYLIELLIKYCKQYLPKPTVVDKSSEGSPRSCPLPDKYNEIEYPSYEVVNDPDLDLFLQSLNCLIYSSNPTVILSCCNALYQLASPLQMKNTKFIEALVRTVTMTENQGNKEMLLQAIHFLSILDQTLFLPYTKKFYVFPKDPIVASIWKIQILSTLINESNVKEIFKELKYYVASAHFPENVVIMAVKSLSRCGQLSTSWESHVMKWLIDHMESHNLSASVLDAYVNVIRMLVQKNPTKHLRIIFKLADLLTVQTSLADNARAGIVWLFGEIASIEFKICPDVLRRLIQNFSNEGPETRCQILVLSAKLLSYDIDNFKQAQVTGSEENNQNPPYYDFSGSRISQMYNAVLYLAKYDDEFDIRDRARMISSLFDSGKYEIVSLLLQAPKPTARSDDFIVSARLETHTPEIKEFFRMLPWNTEITEVGETGNDIREGAELKDYNKYKKSFSSQSFITNNSARSFTSSSNAKLTGINDGDSNSISGKGNVNTFTSQNGKKYRLQSLDEFFSDIPERKSKPRKIIKVVEESSDEDEDESEESSDDDEYSDSSLGTSSSGTSSSHLEL
notes: Apl6, β3-subunit of the yeast AP-3 complex; ear domain aa 631–809
B4: Aps3 (σ-subunit of yeast AP-3) (natural protein, S. cerevisiae, UniProt P47064 1-194, looked up)
chain: MIHAVLIFNKKCQPRLVKFYTPVDLPKQKLLLEQVYELISQRNSDFQSSFLVTPPSLLLSNENNNDEVNNEDIQIIYKNYATLYFTFIVDDQESELAILDLIQTFVESLDRCFTEVNELDLIFNWQTLESVLEEIVQGGMVIETNVNRIVASVDELNKAAESTDSKIGRLTSTGFGSALQAFAQGGFAQWATGQ
notes: Aps3, σ-subunit of the yeast AP-3 complex

Key:
[1] = molecular target: N-myristoylated Arf1, loaded with GTP or GTPγS by Sec7ΔC (UniProt P11076); assay: liposome flotation assay; empty liposomes (Golgi-mimicking lipid mix, with or without PI3P or PI4P) incubated with increasing Arf1, Sec7 GEF and GTP, then purified AP-1 or AP-3 complex; floated on a sucrose step gradient; band of Apl4 or Apl5 in the top fraction quantified
Sequence of N-myristoylated Arf1, loaded with GTP or GTPγS by Sec7ΔC (P11076 whole entry, stated change not applied): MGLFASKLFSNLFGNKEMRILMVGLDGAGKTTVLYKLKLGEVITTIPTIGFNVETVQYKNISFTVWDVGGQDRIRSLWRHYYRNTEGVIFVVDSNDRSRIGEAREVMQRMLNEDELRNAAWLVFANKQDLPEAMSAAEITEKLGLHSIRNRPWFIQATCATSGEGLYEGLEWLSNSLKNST

[2] = molecular target: Vam3 (yeast vacuolar SNARE, AP-3 cargo with dileucine motif) (yeast) (UniProt Q12241); assay: liposome flotation assay; proteoliposomes (Golgi-mimicking lipid mix) carrying a total of 1 μM cargo, incubated with purified AP-1 or AP-3 complex, floated on a sucrose step gradient; top fraction TCA-precipitated, SDS-PAGE, band of Apl4 or Apl5 quantified as percent of load; in Fig. 6E without PIPs or Arf1, in Fig. 6D also with Arf1 and PI3P or PI4P; 150 mM NaCl, 20 mM HEPES/NaOH pH 7.4, 1 mM MgCl2, 10 % glycerol, 60 min 4 °C
Sequence of Vam3 (yeast vacuolar SNARE, AP-3 cargo with dileucine motif) (yeast) (Q12241 whole entry, the tested form may be a part): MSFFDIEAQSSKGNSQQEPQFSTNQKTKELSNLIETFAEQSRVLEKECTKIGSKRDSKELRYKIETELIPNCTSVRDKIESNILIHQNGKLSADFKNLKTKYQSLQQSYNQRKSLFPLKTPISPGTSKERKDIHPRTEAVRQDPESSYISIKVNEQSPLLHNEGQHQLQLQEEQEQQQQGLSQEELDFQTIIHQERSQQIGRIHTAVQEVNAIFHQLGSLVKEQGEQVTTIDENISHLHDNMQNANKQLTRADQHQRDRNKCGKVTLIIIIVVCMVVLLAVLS

[3] = molecular target: GST-Chs3(aa1-38)-Vam3(TMD) (not stated | yeast) (UniProt P29465); assay: as above
Sequence of GST-Chs3(aa1-38)-Vam3(TMD) (not stated | yeast) (P29465 other isoform, or with tags, fused parts or gaps): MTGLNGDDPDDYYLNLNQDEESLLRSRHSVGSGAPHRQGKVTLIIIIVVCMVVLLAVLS

[4] = molecular target: T2, full-length yeast AP-3 complex (S. cerevisiae, UniProt Q08951 1-932; P46682 1-809; P38153 1-483; P47064 1-194); assay: liposome flotation assay; proteoliposomes (Golgi-mimicking lipid mix) carrying a total of 1 μM cargo, incubated with purified AP-1 or AP-3 complex, floated on a sucrose step gradient; top fraction TCA-precipitated, SDS-PAGE, band of Apl4 or Apl5 quantified as percent of load; in Fig. 6E without PIPs or Arf1, in Fig. 6D also with Arf1 and PI3P or PI4P; 150 mM NaCl, 20 mM HEPES/NaOH pH 7.4, 1 mM MgCl2, 10 % glycerol, …; conditions: both partners purified
T2 construct: Apl5, δ-subunit of the yeast AP-3 complex; ear domain aa 639–932; Apl6, β3-subunit of the yeast AP-3 complex; ear domain aa 631–809; Apm3, μ3-subunit of the yeast AP-3 complex; Aps3, σ-subunit of the yeast AP-3 complex; Heterotetramer with apparent equimolar stoichiometry, about 300 kDa; also called adapter protein complex 3; copies: + + +

[5] = molecular target: T1, Apl5 (δ-subunit of yeast AP-3) with …; assay: pull-down + SEC; subunits overproduced together in yeast; captured from cleared lysate on anti-FLAG M2 affinity gel via the C-terminal 3xFLAG-tag on Apl5 (AP-3) or Apl4 (AP-1), eluted with FLAG-peptide, run on Superose 6 Increase; 150 mM NaCl, 20 mM HEPES/NaOH pH 7.4, 1.5 mM MgCl2; Coomassie staining after SDS-PAGE; conditions: partners not purified
[6] = molecular target: B3; assay: cross-linking; 200 μg of purified AP-3 complex, DSSO 0.5 mM added twice, 20 min each at room temperature, quenched with Tris; trypsin, SCX, LC/MS (XlinkX, 1% FDR); conditions: both partners purified
[7] = molecular target: T1, Apl5 (δ-subunit of yeast AP-3) with …; assay: as above; conditions: both partners purified

- fold increase in membrane-bound AP-1 with both Arf1-GTP and PI3P or PI4P [1]: 2 to 3 fold
- percent of the complex bound to liposomes with Arf1-GTP (no PIPs) [1]: 10%
Molecule: full-length yeast AP-1 complex (from UniProt Q12028 1-832)

- percent of AP-3 recruited to proteoliposomes (Vam3 alone) [2]: > 25%
- percent of AP-3 recruited to proteoliposomes (Vam3 with low amounts of Arf1 and PIPs) [2]: 50%
- percent of AP-3 recruited to proteoliposomes (without PIPs or Arf1) [2]: 25%
- percent of AP-3 recruited to proteoliposomes (without PIPs or Arf1) [3]: 25%
Molecule: full-length yeast AP-3 complex, Q08951 1-932; P46682 1-809; P38153 1-483; P47064 1-194

Molecule: B1
- binding result [4]: binds

Molecule: B2
- binding result [5]: binds
- binding result [6]: binds

Molecule: B3
- binding result [5]: binds

Molecule: B4
- binding result [7]: binds
- binding result [6]: binds
